One assay deals with T1, rat PAI-1 (rat, UniProt P20961 24-402).
T1 construct: bought (US Biological)
T1 sequence: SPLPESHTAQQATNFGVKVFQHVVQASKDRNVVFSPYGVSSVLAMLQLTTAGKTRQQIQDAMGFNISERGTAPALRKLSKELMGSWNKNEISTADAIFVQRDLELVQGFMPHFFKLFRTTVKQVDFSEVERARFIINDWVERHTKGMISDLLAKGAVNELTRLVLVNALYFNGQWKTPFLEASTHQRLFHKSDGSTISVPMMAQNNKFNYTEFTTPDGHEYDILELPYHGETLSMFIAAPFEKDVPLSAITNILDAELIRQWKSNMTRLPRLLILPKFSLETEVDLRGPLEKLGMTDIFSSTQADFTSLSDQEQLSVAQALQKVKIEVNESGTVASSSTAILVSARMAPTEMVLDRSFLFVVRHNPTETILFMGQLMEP
Briefly: IgG competition ELISA (DELFIA) against biotinylated human PAI-1, one-site binding analysis; column Rat. (In general: An ELISA detects its analyte on a solid surface through an enzyme-linked reagent.)

Another assay has as its target T2, mouse PAI-1 (mouse, UniProt P22777 24-401).
T2 construct: bought (US Biological); also called murine PAI-1
T2 sequence: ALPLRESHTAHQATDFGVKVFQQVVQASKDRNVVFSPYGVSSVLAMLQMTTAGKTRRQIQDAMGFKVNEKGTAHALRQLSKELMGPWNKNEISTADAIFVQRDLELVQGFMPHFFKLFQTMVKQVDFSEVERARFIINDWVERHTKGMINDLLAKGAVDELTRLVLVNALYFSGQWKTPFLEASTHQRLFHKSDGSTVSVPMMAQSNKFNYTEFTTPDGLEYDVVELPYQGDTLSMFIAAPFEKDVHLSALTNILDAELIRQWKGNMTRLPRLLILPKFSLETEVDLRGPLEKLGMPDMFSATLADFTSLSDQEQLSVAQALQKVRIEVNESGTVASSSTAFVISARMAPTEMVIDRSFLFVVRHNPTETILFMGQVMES
Briefly: IgG competition ELISA (DELFIA) against biotinylated human PAI-1, one-site binding analysis; column Mouse.

Assay [1] concerns the target T3, glycosylated active human PAI-1 produced by CHO cells (human, UniProt P05121 24-402, N-glycosylated (CHO-produced)).
T3 construct: also called hu glyco; human glycosylated PAI-1
Briefly: IgG competition ELISA (DELFIA) against biotinylated human PAI-1, one-site binding analysis; column Human glycosylated.

The next assay concerns the target PAI-2 (UniProt P05120 1-415, limits assumed). Briefly: competition ELISA (DELFIA): PICK167_A01 IgG1 coated on the plate, biotinylated human PAI-1, titration of the unlabelled test antigen.
For a further assay, the target named is T4, PAI-3 (UniProt P05154 26-406, limits assumed).
T4 sequence (looked up): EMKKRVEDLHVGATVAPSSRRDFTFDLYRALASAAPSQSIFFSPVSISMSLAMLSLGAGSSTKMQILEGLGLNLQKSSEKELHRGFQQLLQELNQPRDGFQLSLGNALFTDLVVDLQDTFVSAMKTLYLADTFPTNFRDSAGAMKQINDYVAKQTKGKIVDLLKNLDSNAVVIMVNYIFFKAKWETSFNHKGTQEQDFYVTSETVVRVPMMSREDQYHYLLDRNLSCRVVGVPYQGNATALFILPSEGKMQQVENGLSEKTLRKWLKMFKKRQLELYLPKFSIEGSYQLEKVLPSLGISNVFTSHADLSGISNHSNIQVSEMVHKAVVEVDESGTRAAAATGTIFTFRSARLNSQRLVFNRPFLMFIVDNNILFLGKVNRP
Described as above.

The target of a further assay is antithrombin III (UniProt P01008 33-464). Described as above.
In a further assay the target is T5, α1-antitrypsin (UniProt P01009 25-418).
T5 construct: also called alpha-1-antitrypsin
The assay is described as above.

The target of a further assay is T6, α1-antichymotrypsin (UniProt P01011 24-423).
T6 sequence (looked up): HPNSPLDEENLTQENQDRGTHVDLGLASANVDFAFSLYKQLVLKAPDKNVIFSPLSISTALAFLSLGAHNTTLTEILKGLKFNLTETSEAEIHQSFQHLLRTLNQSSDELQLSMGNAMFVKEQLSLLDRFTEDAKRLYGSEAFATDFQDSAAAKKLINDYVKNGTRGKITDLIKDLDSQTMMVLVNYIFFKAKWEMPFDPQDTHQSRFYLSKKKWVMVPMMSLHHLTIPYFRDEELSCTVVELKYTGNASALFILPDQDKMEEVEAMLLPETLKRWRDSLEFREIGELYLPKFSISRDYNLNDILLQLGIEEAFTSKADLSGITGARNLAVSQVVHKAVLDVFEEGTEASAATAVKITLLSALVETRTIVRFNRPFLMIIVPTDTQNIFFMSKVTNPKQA
The assay is described as above.

The target in another assay is T7, α2-antiplasmin (UniProt P08697 40-491, limits assumed).
T7 sequence (looked up): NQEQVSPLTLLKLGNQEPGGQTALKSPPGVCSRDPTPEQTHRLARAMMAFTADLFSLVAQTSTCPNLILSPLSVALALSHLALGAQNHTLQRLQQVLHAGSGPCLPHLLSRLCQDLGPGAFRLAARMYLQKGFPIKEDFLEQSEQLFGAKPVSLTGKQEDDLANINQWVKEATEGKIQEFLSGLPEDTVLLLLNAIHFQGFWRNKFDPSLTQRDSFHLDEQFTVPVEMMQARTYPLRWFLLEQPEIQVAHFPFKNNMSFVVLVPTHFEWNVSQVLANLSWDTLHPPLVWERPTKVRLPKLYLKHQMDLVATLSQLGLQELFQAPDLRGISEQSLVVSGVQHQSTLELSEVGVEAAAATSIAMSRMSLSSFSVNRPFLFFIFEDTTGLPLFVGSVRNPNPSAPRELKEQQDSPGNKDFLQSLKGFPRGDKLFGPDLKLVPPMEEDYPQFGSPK
The description is as above.

B1: PICK167_A01 IgG1 (antibody, V domains shown)
VH: QVQLQQSGAEVKKPGSSVKVSCKASGGTFSSYAISWVRQAPGQRLEWMGGIIPTFGTANYAQKFQGRVTITADESTSTAYMELSGLRSEDTAVYYCARERRQWLEGHFDYWGRGTPVTVSS
VL: DIQMTQSPSFLSASIGDRVTITCRASEGIYHNLAWYQQKPGKAPKLLIYKASSLASGAPSRFSGSRSGTDFTLTISSLQPDDFATYYCQQYSNYPLTFGGGTKLEIKR
B1: the “fold difference in observed binding KD compared to human wild-type active” value in the assay with rat PAI-1 turned out to be 9.7 fold; with mouse PAI-1, 47 fold; in assay [1] it was 1.2 fold. Also, the binding result with PAI-2, with PAI-3, in the assay with antithrombin III, with α1-antitrypsin, with α1-antichymotrypsin and with α2-antiplasmin was “no binding (tested: log M about -6.3 (about 5e-7 M))” throughout.

(Values after patent US20120114652A1 (AbbVie / Abbott, published 2012).)
